# B1: MT6-MMP (protein)
# chain: YALSGSVWKKRTLTWRVRSFPQSSQLSQETVRVLMSYALMAWGMESGLTFHEVDSPQGQEPDILIDFARAFHQDSYPFDGLGGTLAHAFFPGEHPISGDTHFDDEETWTFGSKDGEGTDLFAVAVHEFGHALGLGHSSAPNSIMRPFYQGPVGDPDKYRLSQDDRDGLQQLYGKAPQTPYDKPTRKPLAPPPQPPASPTHSPSFPIPDRCEGNFDAIANIRGETFFFKGPWFWRLQPSGQLVSPRPARLHRFWEGLPAQVRVVQAAYARHRDGRILLFSGPQFWVFQDRQLEGGARPLTELGLPPGEEVDAVFSWPQNGKTYLVRGRQYWRYDEAAARPDPGYPRDLSLWEGAPPSPDDVTVSNAGDTYFFKGAHYWRFPKNSIKTEPDAPQPMGPNWLDCPAPSSGPRAPRPPKATPVSETCDCQCELNQA
# B2: MT4-MMP (protein)
# chain: QAPAPTKWNKRNLSWRVRTFPRDSPLGHDTVRALMYYALKVWSDIAPLNFHEVAGSAADIQIDFSKADHNDGYPFDGPGGTVAHAFFPGHHHTAGDTHFDDDEAWTFRSSDAHGMDLFAVAVHEFGHAIGLSHVAAAHSIMRPYYQGPVGDPLRYGLPYEDKVRVWQLYGVRESVSPTAQPEEPPLLPEPPDNRSSAPPRKDVPHRCSTHFDAVAQIRGEAFFFKGKYFWRLTRDRHLVSLQPAQMHRFWRGLPLHLDSVDAVYERTSDHKIVFFKGDRYWVFKDNNVEEGYPRPVSDFSLPPGGIDAAFSWAHNDRTYFFKDQLYWRYDDHTRHMDPGYPAQSPLWRGVPSTLDDAMRWSDGASYFFRGQEYWKVLDGELEVAPGYPQSTARDWLVCGDSQADGSVAAGVDAAEGPRAPPGQHDQSRSEDGYEVCSCTS
# Target: EphA2 having Myc-labeled C-terminal
row,Protein,"EphA2 processed fragment, western blotting"
1,B1,a processed fragment of EphA2 (small arrow) was detected only in the MT1-MMP-introduced cells
2,B2,a processed fragment of EphA2 (small arrow) was detected only in the MT1-MMP-introduced cells

# From patent publication US20190064149
